The target in assay [1] is T1, K28A_HO BMC-H 5815ggsSZ5-HA.
T1 construct: Self-assembles into higher-order sheets in E. coli; also called K28A 5815-Synthetic Zipper5 construct; K28AHO BMC-H-SZ5
T1 chain: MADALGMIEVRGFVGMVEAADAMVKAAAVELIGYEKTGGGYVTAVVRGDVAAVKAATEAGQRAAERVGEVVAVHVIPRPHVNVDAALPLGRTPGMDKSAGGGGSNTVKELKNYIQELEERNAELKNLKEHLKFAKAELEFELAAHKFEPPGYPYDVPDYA
Description: live-cell fluorescence time course in E. coli. The method, then:
E. coli BL21 ArcticExpress (DE3) competent cells (Agilent) were used for cellular expression studies. Competent cells were transformed with constructs containing the gene(s) of interest and plated on LB agar plates with the appropriate antibiotic(s) to provide selection. Individual colonies were picked into 5 mL LB cultures with the appropriate antibiotics(s) and incubated at 30° C., with a rotational stirring of 250 RPM. These overnight cultures were inoculated 1:100 into fresh liquid cultures with conditions dependent upon the experimental plan. For TEM analysis, cells were inoculated in 50 mL LB, grown until ˜OD₆₀₀ 0.8, induced with 100 μM IPTG, and incubated for an additional 6 hours, before 2 mL of the parent culture was fixed overnight at 4° C. Cells used to purify protein were cultured in a similar manner, the whole culture was pelleted, and cell pellets were stored at −20° C. for subsequent protein isolation. Cultures analyzed via light microscopy were inoculated into 1 mL LB or SOB media in culture tubes and incubated the indicated amount of time before imaging. Appropriate inducer(s) (IPTG or aTc) were added as indicated for each experimental design.
The dynamics of scaffold nucleation and maturation was then visualized over time in live cells. […]

Assay [2] shares this target. Description: fluorescence co-localization in E. coli, deconvolved widefield (FIG. 2C).
For assay [3] the target is unchanged. Description: fluorescence microscopy of E. coli co-expressing both, 100 µM or 500 µM IPTG (FIG. 2I).
Assay [4] has the same target. Description: fluorescence co-localization in E. coli, 100 µM or 500 µM IPTG (FIG. 2I).

B1: STREP-mNeonGreen (other, not shown: small tags and cut ends)
chain: MVSKGEEDNMASLPATHELHIFGSINGVDFDMVGQGTGNPNDGYEELNLKSTKGDLQFSPWILVPHIGYGFHQYLPYPDGMSPFQAAMVDGSGYQVHRTMQFEDGASLTVNYRYTYEGSHIKGEAQVKGTGFPADGPVMTNSLTAADWCRSKKTYPNDKTIISTFKWSYTTGNGKRYRSTARTTYTFAKPMAANYLKNQPMYVFRKTELKHSKTELNFKEWQKAFTDVMGMDELYK
notes: Fluorescent cargo without an SZ6 domain; also called untagged cargo; untagged cargo construct PLacO::mNeonGreen
Regarding B1, the binding result in assay [1] was “no binding”.

B2: Synthetic Zipper6 LINKER mNeonGreen StrepII Tag construct (designed binder)
chain: MQKVAQLKNRVAYKLKENAKLENIVARLENDNANLEKDIANLEKDIANLERDVARGSGGGSGGGSMVSKGEEDNMASLPATHELHIFGSINGVDFDMVGQGTGNPNDGYEELNLKSTKGDLQFSPWILVPHIGYGFHQYLPYPDGMSPFQAAMVDGSGYQVHRTMQFEDGASLTVNYRYTYEGSHIKGEAQVKGTGFPADGPVMTNSLTAADWCRSKKTYPNDKTIISTFKWSYTTGNGKRYRSTARTTYTFAKPMAANYLKNQPMYVFRKTELKHSKTELNFKEWQKAFTDVMGMDELYKSAWSHPQFEK
notes: also called SZ6-ggs-mNeonGreen; SZ6-mNeonGreen
On to B2, for which the binding result in assay [2] is recorded as “binds”.

B3: STREP-mScarlet-I (other)
chain: MVSKGEAVIKEFMRFKVHMEGSMNGHEFEIEGEGEGRPYEGTQTAKLKVTKGGPLPFSWDILSPQFMYGSRAFIKHPADIPDYYKQSFPEGFKWERVMNFEDGGAVTVTQDTSLEDGTLIYKVKLRGTNFPPDGPVMQKKTMGWEASTERLYPEDGVLKGDIKMALRLKDGGRYLADFKTTYKAKKPVQMPGAYNVDRKLDITSHNEDYTVVEQYERSEGRHSTGGMDELYK
notes: Fluorescent cargo without an SZ6 domain; also called untagged cargo
Regarding B3, the binding result in assay [3] is recorded as “no binding”.

B4: Synthetic Zipper6 LINKER mScarlet-I StrepII Tag construct (designed binder)
chain: MQKVAQLKNRVAYKLKENAKLENIVARLENDNANLEKDIANLEKDIANLERDVARGSGGGSGGGSMVSKGEAVIKEFMRFKVHMEGSMNGHEFEIEGEGEGRPYEGTQTAKLKVTKGGPLPFSWDILSPQFMYGSRAFIKHPADIPDYYKQSFPEGFKWERVMNFEDGGAVTVTQDTSLEDGTLIYKVKLRGTNFPPDGPVMQKKTMGWEASTERLYPEDGVLKGDIKMALRLKDGGRYLADFKTTYKAKKPVQMPGAYNVDRKLDITSHNEDYTVVEQYERSEGRHSTGGMDELYKSAWSHPQFEK
notes: also called SZ6-ggs-mScarlet-I; SZ6-mScarlet-I
In the case of B4, in assay [4], the binding result is recorded as “binds”.
